Measurements from PMC3361065 (Biochemistry, 2012).

T1: yeast MtRNAP with residues 1-358 deleted (ΔN1) (yeast, UniProt P13433 359-1351)
T1 sequence (looked up): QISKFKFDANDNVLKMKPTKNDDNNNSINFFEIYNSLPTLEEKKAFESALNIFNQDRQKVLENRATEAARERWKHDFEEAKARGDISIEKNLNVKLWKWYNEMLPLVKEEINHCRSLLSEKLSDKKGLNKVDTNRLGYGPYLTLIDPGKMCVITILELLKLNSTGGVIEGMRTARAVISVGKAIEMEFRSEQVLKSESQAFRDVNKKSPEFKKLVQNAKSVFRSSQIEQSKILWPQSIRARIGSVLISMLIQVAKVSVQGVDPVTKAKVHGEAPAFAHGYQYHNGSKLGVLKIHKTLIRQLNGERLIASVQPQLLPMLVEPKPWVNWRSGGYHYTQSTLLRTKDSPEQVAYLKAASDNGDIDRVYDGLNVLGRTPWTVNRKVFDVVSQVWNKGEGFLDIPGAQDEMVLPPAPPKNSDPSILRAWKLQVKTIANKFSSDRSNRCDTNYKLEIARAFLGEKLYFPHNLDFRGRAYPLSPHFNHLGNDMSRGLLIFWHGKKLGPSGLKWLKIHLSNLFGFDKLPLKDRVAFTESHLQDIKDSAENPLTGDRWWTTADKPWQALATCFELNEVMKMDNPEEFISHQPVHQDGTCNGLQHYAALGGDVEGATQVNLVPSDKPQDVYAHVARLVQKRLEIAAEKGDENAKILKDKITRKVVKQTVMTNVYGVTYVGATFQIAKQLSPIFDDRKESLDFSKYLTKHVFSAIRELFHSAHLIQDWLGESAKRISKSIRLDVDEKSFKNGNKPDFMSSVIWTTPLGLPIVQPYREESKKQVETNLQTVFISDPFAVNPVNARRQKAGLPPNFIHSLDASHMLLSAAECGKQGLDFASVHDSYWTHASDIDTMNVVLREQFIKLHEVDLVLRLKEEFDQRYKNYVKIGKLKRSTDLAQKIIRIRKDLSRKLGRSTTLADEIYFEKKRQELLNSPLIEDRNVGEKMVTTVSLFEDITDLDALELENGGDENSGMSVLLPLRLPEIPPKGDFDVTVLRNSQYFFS

T2: yeast MtRNAP with residues 1-264 deleted (ΔN2) (yeast, UniProt P13433 265-1351)
T2 sequence (looked up): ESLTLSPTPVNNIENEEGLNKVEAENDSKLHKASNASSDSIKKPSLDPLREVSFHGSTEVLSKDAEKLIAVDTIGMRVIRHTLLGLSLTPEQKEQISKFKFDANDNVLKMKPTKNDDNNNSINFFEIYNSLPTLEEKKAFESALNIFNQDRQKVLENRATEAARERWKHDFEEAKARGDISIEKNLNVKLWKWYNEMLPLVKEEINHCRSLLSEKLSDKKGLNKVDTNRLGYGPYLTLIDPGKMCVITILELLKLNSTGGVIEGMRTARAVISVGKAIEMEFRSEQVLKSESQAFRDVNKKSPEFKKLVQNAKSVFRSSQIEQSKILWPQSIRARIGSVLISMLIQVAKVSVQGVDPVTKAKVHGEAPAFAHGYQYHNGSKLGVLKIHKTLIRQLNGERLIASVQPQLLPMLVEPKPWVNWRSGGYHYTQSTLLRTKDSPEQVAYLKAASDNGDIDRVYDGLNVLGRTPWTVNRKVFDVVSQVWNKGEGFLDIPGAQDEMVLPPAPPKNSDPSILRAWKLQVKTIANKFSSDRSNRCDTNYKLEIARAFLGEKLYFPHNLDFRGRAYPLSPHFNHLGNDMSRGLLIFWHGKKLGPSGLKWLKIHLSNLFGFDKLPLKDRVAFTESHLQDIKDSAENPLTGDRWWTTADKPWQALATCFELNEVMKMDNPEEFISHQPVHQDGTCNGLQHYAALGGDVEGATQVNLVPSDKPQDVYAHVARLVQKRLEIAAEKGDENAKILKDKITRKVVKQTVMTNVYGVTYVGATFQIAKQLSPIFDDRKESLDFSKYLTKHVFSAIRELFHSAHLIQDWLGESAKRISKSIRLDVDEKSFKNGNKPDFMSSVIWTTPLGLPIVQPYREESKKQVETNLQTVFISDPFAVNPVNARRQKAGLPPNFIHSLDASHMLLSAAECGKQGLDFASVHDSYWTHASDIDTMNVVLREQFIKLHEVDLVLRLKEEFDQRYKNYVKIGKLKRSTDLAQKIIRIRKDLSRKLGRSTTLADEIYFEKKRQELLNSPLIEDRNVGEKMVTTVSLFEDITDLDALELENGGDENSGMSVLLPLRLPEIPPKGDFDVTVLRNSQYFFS


How the values were obtained:
[1] = target: T1, yeast MtRNAP with residues 1-358 …; assay: ultrafiltration retention
[2] = target: T2, yeast MtRNAP with residues 1-264 …; assay: native gel or EMSA
[3] = target: yeast mitochondrial RNA polymerase (scMtRNAP) WT;MTF1 (yeast mitochondrial transcription factor) (Saccharomyces cerevisiae?;Saccharomyces …, UniProt P13433;P14908 1-1351;1-341, |); assay: EMSA
Chain of yeast mitochondrial RNA polymerase (scMtRNAP) WT;MTF1 (yeast mitochondrial transcription factor) (P13433 whole entry, chain 1 of 2, one chain of several): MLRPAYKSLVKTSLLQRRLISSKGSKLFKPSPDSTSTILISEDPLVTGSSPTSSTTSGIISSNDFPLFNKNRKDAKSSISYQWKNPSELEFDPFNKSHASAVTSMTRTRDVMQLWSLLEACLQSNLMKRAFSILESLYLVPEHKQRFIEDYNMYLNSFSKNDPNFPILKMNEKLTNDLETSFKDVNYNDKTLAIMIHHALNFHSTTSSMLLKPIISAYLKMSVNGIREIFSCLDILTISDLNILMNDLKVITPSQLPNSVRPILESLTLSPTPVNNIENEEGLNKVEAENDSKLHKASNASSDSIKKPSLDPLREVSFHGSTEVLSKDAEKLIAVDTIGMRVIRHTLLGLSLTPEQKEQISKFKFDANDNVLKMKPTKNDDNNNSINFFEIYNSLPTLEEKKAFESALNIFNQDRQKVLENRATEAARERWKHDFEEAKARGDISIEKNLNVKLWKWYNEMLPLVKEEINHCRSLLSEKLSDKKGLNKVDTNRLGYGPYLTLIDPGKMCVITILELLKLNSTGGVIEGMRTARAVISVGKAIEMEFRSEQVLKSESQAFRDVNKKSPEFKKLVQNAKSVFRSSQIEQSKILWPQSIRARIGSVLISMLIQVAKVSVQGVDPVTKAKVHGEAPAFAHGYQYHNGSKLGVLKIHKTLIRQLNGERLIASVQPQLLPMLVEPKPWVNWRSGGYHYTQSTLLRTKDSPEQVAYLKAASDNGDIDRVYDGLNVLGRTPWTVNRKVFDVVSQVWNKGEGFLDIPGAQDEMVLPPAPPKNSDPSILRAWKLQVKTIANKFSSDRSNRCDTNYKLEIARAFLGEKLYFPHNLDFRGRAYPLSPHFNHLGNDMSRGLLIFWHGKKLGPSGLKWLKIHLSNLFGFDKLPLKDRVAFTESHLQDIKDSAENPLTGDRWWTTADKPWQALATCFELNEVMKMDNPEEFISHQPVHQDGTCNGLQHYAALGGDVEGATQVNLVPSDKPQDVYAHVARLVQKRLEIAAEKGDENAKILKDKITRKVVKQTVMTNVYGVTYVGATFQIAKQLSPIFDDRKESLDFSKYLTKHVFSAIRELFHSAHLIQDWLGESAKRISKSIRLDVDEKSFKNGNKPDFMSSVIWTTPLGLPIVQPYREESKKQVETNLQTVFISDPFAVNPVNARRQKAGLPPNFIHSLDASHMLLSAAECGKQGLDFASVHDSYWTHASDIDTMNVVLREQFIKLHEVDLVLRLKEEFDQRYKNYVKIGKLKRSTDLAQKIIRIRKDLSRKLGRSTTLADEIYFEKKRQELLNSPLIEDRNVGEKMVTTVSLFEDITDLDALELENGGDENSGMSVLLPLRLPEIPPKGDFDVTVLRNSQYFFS

Binder | binding result [1] | binding result [2] | Kd [3] [nM]
yeast mitochondrial transcription factor MTF1 (natural protein, UniProt P14908 1-341, looked up) MSVPIPGIKDISKLKFFYGFKYLWNPTVYNKIFDKLDLTKTYKHPEELKVLDLYPGVGIQSAIFYNKYCPRQYSLLEKRSSLYKFLNAKFEGSPLQILKRDPYDWSTYSNLIDEERIFVPEVQSSDHINDKFLTVANVTGEGSEGLIMQWLSCIGNKNWLYRFGKVKMLLWMPSTTARKLLARPGMHSRSKCSVVREAFTDTKLIAISDANELKGFDSQCIEEWDPILFSAAEIWPTKGKPIALVEMDPIDFDFDVDNWDYVTRHLMILKRTPLNTVMDSLGHGGQQYFNSRITDKDLLKKCPIDLTNDEFIYLTKLFMEWPFKPDILMDFVDMYQTEHSG | binds | binds | 
33 bp Duplex promoter (dsDNA) DNA 1: CGCGTAAAACTATTCTTTATTACTTATATCGCG DNA 2: CGCGATATAAGTAATAAAGAATAGTTTTACGCG |  |  | 480
